Here are results for four substances from paper PMC11847078.

The target in one assay is CD4-Nav1.6-CTD-NLuc (UniProt Q9UQD0). Put plainly: split reporter (BiFC, NanoBiT); in-cell split-luciferase complementation assay (LCA); HEK293 cells transiently cotransfected with CD4-Nav1.6-CTD-NLuc and CLuc-GSK3β or a mutant; D-luciferin, 37 °C; peak luminescence as percent of the per-plate control; in one set cells treated with vehicle (0.5% DMSO) or 2 μM CHIR99021 for 1 h before the read-out.

Another assay has as its target GSK3β (UniProt P49841). The experiment in a line: split-luciferase complementation assay in HEK293. To be noted: reference: vehicle (0.5% DMSO); sites T1936.

Chain of UniProt Q9UQD0 (Q9UQD0 whole entry): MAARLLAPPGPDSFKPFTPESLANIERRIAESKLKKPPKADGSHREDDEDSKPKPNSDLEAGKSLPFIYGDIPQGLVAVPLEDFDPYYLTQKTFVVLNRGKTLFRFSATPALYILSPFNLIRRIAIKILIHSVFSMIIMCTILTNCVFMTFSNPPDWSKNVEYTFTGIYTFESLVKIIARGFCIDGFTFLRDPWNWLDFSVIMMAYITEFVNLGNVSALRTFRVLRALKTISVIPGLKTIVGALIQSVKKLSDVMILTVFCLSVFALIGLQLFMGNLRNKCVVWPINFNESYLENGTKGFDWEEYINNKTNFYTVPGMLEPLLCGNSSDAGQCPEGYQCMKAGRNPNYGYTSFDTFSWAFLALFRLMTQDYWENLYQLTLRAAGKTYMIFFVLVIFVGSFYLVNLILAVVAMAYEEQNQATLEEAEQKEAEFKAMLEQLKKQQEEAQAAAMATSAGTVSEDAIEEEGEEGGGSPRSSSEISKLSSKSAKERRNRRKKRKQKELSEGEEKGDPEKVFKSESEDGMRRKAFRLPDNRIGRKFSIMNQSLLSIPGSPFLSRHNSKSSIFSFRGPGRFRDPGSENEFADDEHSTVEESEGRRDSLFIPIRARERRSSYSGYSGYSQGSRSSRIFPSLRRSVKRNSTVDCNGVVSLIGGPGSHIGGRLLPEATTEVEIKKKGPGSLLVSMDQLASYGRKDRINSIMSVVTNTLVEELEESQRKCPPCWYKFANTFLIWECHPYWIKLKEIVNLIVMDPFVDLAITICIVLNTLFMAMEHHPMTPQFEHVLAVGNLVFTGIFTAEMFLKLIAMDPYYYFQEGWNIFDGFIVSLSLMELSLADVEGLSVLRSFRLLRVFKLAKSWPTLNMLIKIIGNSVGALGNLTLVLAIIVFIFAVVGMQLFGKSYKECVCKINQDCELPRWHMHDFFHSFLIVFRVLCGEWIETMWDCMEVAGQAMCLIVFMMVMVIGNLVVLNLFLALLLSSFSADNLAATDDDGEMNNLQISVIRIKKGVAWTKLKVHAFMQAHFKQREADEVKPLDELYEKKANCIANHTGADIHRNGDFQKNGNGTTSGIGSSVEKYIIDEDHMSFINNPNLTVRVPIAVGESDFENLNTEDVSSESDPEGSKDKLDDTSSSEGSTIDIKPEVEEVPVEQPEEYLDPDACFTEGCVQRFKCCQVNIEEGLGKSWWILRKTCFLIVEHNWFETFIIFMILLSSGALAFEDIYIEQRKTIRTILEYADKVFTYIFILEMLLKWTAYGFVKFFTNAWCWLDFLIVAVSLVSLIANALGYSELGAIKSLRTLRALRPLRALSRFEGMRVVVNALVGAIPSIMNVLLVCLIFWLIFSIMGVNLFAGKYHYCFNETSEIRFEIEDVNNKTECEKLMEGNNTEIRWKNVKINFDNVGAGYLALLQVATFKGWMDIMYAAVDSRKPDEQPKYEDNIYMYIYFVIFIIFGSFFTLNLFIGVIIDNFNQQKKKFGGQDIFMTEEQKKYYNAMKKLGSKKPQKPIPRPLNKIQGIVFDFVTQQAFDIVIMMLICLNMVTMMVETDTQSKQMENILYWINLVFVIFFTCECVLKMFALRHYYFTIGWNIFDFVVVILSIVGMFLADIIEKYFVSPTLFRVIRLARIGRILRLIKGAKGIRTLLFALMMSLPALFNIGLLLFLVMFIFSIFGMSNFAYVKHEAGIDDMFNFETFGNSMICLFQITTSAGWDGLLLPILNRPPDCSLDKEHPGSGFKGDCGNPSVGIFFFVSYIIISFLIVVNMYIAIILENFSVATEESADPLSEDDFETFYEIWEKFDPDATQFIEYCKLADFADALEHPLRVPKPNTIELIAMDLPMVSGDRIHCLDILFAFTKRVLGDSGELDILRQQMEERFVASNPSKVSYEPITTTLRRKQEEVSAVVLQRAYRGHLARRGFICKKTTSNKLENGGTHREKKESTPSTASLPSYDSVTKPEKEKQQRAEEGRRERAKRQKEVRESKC
Chain of CLuc-GSK3β (P49841 whole entry): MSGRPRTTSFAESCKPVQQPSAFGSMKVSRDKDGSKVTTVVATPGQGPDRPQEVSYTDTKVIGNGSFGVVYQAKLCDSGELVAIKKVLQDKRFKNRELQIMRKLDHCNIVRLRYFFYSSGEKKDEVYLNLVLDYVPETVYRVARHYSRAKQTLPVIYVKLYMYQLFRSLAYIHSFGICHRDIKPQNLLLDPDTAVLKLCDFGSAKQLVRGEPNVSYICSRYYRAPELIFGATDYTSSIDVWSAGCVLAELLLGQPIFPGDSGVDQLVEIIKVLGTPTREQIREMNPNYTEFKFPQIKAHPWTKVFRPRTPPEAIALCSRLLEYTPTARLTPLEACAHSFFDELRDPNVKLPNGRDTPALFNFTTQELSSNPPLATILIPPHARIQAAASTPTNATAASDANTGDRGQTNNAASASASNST

In the case of “CLuc-GSK3β (from UniProt P49841 1-420) (enzyme)”, in the assay with CD4-Nav1.6-CTD-NLuc, the % Lum with 2 μM CHIR99021 (relative to Nav1.6:GSK3β + DMSO) is 91.2 % Lum and the % Lum with vehicle (0.5% DMSO; the control to which the set is normalised) was 100 % Lum.
On to “CLuc-GSK3βΔABD (from UniProt P49841 1-420) (enzyme)”, for which, in the assay with CD4-Nav1.6-CTD-NLuc, the % Lum (luminescence relative to Nav1.6:GSK3β control) is 42 % Lum, the % Lum with 2 μM CHIR99021 (relative to Nav1.6:GSK3β + DMSO) amounted to 58.2 % Lum and the % Lum with vehicle (0.5% DMSO) (relative to Nav1.6:GSK3β + DMSO) was found to be 60.9 % Lum.
Turning to “CLuc-GSK3βΔCTD (from UniProt P49841 1-343) (domain or fragment)”, in the assay with CD4-Nav1.6-CTD-NLuc, the % Lum (luminescence relative to Nav1.6:GSK3β control) stood at 167 % Lum.
As to “Nav1.6 C-terminal domain (CTD) 2 μM CHIR99021, 1 h”, in the assay with GSK3β, the “other: % luminescence of WT GSK3β + DMSO control” value is listed as “same; reference 60.9 ± 3.3” and the percent of reference result was “same; reference 100.0 ± 4.4”.
